Experimental data taken from patent publication US20240002497A1 (Merck Sharp & Dohme, published 2024).

Tests used:
huNav1.7α + β1-β2-β3 [1] = molecular target: T1, huNav1.7α + β1-β2-β3 (human, UniProt Q15858 1-1988; A5A6L6 19-218; O60939 30-215; Q2KI11 23-215); test: binding FACS, CHO FlpIn cells
T1 construct: Cell line (CHO FlpIn, HEK FlpIn, transient HEK293T) is named under assay; also called huNav1.7-beta1-beta2-beta3; human Nav1.7α with Navβ1, Navβ2 and Navβ3
Description: (§1) Binding of the ISVDs to cell-expressed Nav1.7α was detected via murine anti-Flag (Sigma, catalog #F1804). Briefly, cells were resuspended in FACS buffer (PBS, 10% FBS, NaN₃) and transferred to a 96-well V-bottom plate at 1×10^5 cells/well. Purified FLAG3-tagged ISVD was diluted in FACS buffer and added to the cells for 30 minutes at 4° C. […] Prior to the read-out, the samples were resuspended in 1 μg/mL propidium iodide (Sigma, catalog #P4170) to exclude dead cells. Between each step, the cells were centrifuged for 5 minutes at 200 grams and washed with 100 μL/well FACS buffer.

rhNav1.7α + β1-β2-β3 = molecular target: T2, rhNav1.7α + β1-β2-β3 (rhesus monkey); test: binding FACS, CHO FlpIn cells
T2 construct: also called rhNav1.7-beta1-beta2-beta3; rhesus Nav1.7α
Description: as §1

huNav1.7α + β1-β2-β3 [2] = molecular target: T3, huNav1.7α + β1-β2-β3 (human, UniProt Q15858 1-1988; A5A6L6 19-218; O60939 30-215; Q2KI11 23-215); test: binding FACS, CHO FlpIn
T3 construct: also called huNav1.7-beta1-beta2-beta3; huNav1.7-β1-β2-β3
Description: as §1

Binder | EC50 (huNav1.7α + β1-β2-β3 [1]) [nM] | Bmax (rhNav1.7α + β1-β2-β3) [%] | EC50 (rhNav1.7α + β1-β2-β3) [nM] | Bmax (huNav1.7α + β1-β2-β3 [2]) [%] | EC50 (huNav1.7α + β1-β2-β3 [2]) [nM] | Bmax (huNav1.7α + β1-β2-β3 [1]) [%] | binding result (rhNav1.7α + β1-β2-β3)
F010301867 (VHH, A28Q vs F0103464B09 (Kabat)) VHH: EVQLVESGGGLVQPGGSLRLSCATTSRQFIRDVFTGWYRRVPGKERELVARIYNGGNTNYADFAKGRFSISRDNAKKMVTLRMSNLKPEDTGVYYCLFSGTINTGREYRSGDYWGQGTLVTVSS | 4.8 | 74 | 22 |  |  |  | 
F010301892 (VHH, V33L vs F0103464B09 (Kabat); also called F0103464B09(V33L)) VHH: EVQLVESGGGLVQPGGSLRLSCATTSRAFIRDLFTGWYRRVPGKERELVARIYNGGNTNYADFAKGRFSISRDNAKKMVTLRMSNLKPEDTGVYYCLFSGTINTGREYRSGDYWGQGTLVTVSS | 4 | 100 | 9.1 |  |  |  | 
F010301889 (VHH, S95A vs F0103464B09 (Kabat)) VHH: EVQLVESGGGLVQPGGSLRLSCATTSRAFIRDVFTGWYRRVPGKERELVARIYNGGNTNYADFAKGRFSISRDNAKKMVTLRMSNLKPEDTGVYYCLFAGTINTGREYRSGDYWGQGTLVTVSS | 5.4 | 92 | 8.5 |  |  |  | 
F010301886 (VHH, N58Q vs F0103464B09 (Kabat)) VHH: EVQLVESGGGLVQPGGSLRLSCATTSRAFIRDVFTGWYRRVPGKERELVARIYNGGNTQYADFAKGRFSISRDNAKKMVTLRMSNLKPEDTGVYYCLFSGTINTGREYRSGDYWGQGTLVTVSS | 4.3 | 81 | 15 |  |  |  | 
F010301880 (VHH, G54S vs F0103464B09 (Kabat)) VHH: EVQLVESGGGLVQPGGSLRLSCATTSRAFIRDVFTGWYRRVPGKERELVARIYNSGNTNYADFAKGRFSISRDNAKKMVTLRMSNLKPEDTGVYYCLFSGTINTGREYRSGDYWGQGTLVTVSS | 4.9 | 73 | 24 |  |  |  | 
F010301890 (VHH, T35V vs F0103464B09 (Kabat)) VHH: EVQLVESGGGLVQPGGSLRLSCATTSRAFIRDVFVGWYRRVPGKERELVARIYNGGNTNYADFAKGRFSISRDNAKKMVTLRMSNLKPEDTGVYYCLFSGTINTGREYRSGDYWGQGTLVTVSS | 5 | 58 | 20 |  |  |  | 
F010301884 (VHH, N53A vs F0103464B09 (Kabat)) VHH: EVQLVESGGGLVQPGGSLRLSCATTSRAFIRDVFTGWYRRVPGKERELVARIYAGGNTNYADFAKGRFSISRDNAKKMVTLRMSNLKPEDTGVYYCLFSGTINTGREYRSGDYWGQGTLVTVSS | 6 | 47 | 50 |  |  |  | 
F010301878 (VHH, G54E vs F0103464B09 (Kabat)) VHH: EVQLVESGGGLVQPGGSLRLSCATTSRAFIRDVFTGWYRRVPGKERELVARIYNEGNTNYADFAKGRFSISRDNAKKMVTLRMSNLKPEDTGVYYCLFSGTINTGREYRSGDYWGQGTLVTVSS | 7.1 | 83 | 27 |  |  |  | 
F010302341 (VHH) VHH: EVQLVESGGGVVQPGGSLRLSCAASSRQFIRDVFTGWYRQAPGKQRELVARIYNEGNTNYADSAKGRFTISRDNAKKTVYLQMNSLRPEDTALYYCLFSGTISTGREYRSGDYWGQGTLVTVSS |  |  |  | 100 | 5.3 |  | 
F010302345 (VHH) VHH: EVQLVESGGGVVQPGGSLRLSCAASHRQFIRDVFTGWYRQAPGKQRELVARIYEGGNTQYADSAKGRFTISRDNAKKTVYLQMNSLRPEDTALYYCLFSGTISTGREYRSGDYWGQGTLVTVSS | 4.9 | 96 | 12 |  |  | 100 | 

Next, values leading:

EC50 (huNav1.7α + β1-β2-β3 [1]) [nM] | Bmax (rhNav1.7α + β1-β2-β3) [%] | EC50 (rhNav1.7α + β1-β2-β3) [nM] | Bmax (huNav1.7α + β1-β2-β3 [2]) [%] | EC50 (huNav1.7α + β1-β2-β3 [2]) [nM] | Bmax (huNav1.7α + β1-β2-β3 [1]) [%] | binding result (rhNav1.7α + β1-β2-β3) | Binder
4.8 | 48 | 34 |  |  |  |  | F010301883 (VHH, I51V vs F0103464B09 (Kabat)) VHH: EVQLVESGGGLVQPGGSLRLSCATTSRAFIRDVFTGWYRRVPGKERELVARVYNGGNTNYADFAKGRFSISRDNAKKMVTLRMSNLKPEDTGVYYCLFSGTINTGREYRSGDYWGQGTLVTVSS
5.3 | 95 | 8.7 |  |  |  |  | F010301888 (VHH, S26H vs F0103464B09 (Kabat)) VHH: EVQLVESGGGLVQPGGSLRLSCATTHRAFIRDVFTGWYRRVPGKERELVARIYNGGNTNYADFAKGRFSISRDNAKKMVTLRMSNLKPEDTGVYYCLFSGTINTGREYRSGDYWGQGTLVTVSS
4.5 | 43 | 41 |  |  |  |  | F010301882 (VHH, I30V vs F0103464B09 (Kabat)) VHH: EVQLVESGGGLVQPGGSLRLSCATTSRAFVRDVFTGWYRRVPGKERELVARIYNGGNTNYADFAKGRFSISRDNAKKMVTLRMSNLKPEDTGVYYCLFSGTINTGREYRSGDYWGQGTLVTVSS
4.7 | 45 | 26 |  |  |  |  | F010301891 (VHH, T57V vs F0103464B09 (Kabat)) VHH: EVQLVESGGGLVQPGGSLRLSCATTSRAFIRDVFTGWYRRVPGKERELVARIYNGGNVNYADFAKGRFSISRDNAKKMVTLRMSNLKPEDTGVYYCLFSGTINTGREYRSGDYWGQGTLVTVSS
7.5 | 51 | 59 |  |  |  |  | F010301887 (VHH, R31Q vs F0103464B09 (Kabat)) VHH: EVQLVESGGGLVQPGGSLRLSCATTSRAFIQDVFTGWYRRVPGKERELVARIYNGGNTNYADFAKGRFSISRDNAKKMVTLRMSNLKPEDTGVYYCLFSGTINTGREYRSGDYWGQGTLVTVSS
4.2 | 99 | 5.8 |  |  |  |  | F010301881 (VHH, G54W vs F0103464B09 (Kabat)) VHH: EVQLVESGGGLVQPGGSLRLSCATTSRAFIRDVFTGWYRRVPGKERELVARIYNWGNTNYADFAKGRFSISRDNAKKMVTLRMSNLKPEDTGVYYCLFSGTINTGREYRSGDYWGQGTLVTVSS
8 | 100 | 18 |  |  |  |  | F010301885 (VHH, N53E vs F0103464B09 (Kabat)) VHH: EVQLVESGGGLVQPGGSLRLSCATTSRAFIRDVFTGWYRRVPGKERELVARIYEGGNTNYADFAKGRFSISRDNAKKMVTLRMSNLKPEDTGVYYCLFSGTINTGREYRSGDYWGQGTLVTVSS
 |  |  | 100 | 5.3 |  |  | F010302357 (VHH) VHH: EVQLVESGGGVVQPGGSLRLSCAASSRQFIRDVFTGWYRQAPGKQRELVARIYNEGNTNYADSVKGRFTISRDNAKKTVYLQMNSLRPEDTALYYCLFSGTISTGREYRSGDYWGQGTLVTVSS
4 | 70 | 11 |  |  | 100 |  | F010302334 (VHH) VHH: EVQLVESGGGVVQPGGSLRLSCAASSRQFIRDVFTGWYRRAPGKQRELVARIYNEGNTQYADSAKGRFTISRDNAKKTVYLQMNSLRPEDTALYYCLFSGTISTGREYRSGDYWGQGTLVTVSS
4.1 | 84 | 13 |  |  | 100 |  | F010302335 (VHH) VHH: EVQLVESGGGVVQPGGSLRLSCAASSRQFIRDVFTGWYRRAPGKQRELVARIYESGNTQYADSAKGRFTISRDNAKKTVYLQMNSLRPEDTALYYCLFSGTISTGREYRSGDYWGQGTLVTVSS
4.1 |  |  |  |  | 100 | no binding | F010302333 (VHH) VHH: EVQLVESGGGVVQPGGSLRLSCAASSRQFIRDVFTGWYRRAPGKQRELVARIYNEGNTNYADSAKGRFTISRDNAKKTVYLQMNSLRPEDTALYYCLFSGTISTGREYRSGDYWGQGTLVTVSS [F010302333, listing 1 of 2 here]
 |  |  | 100 | 10 |  |  | F010301870 (VHH, also called F0103464B09(L11V, S68T, T79Y, R81Q, S82aN, N82bS, K83R, G88A, V89L, L93N)) VHH: EVQLVESGGGVVQPGGSLRLSCATTSRAFIRDVFTGWYRRVPGKERELVARIYNGGNTNYADFAKGRFTISRDNAKKMVYLQMNSLRPEDTALYYCNFSGTINTGREYRSGDYWGQGTLVTVSS
 |  |  | 100 | 3.9 |  |  | F010302368 (VHH, also called F0103464B09(L11V, T24A, T25S, R39Q, V40A, E44Q, F62S, A63V, S68T, M77T, T79Y, R81Q, S82aN, N82bS, K83R, G88A, V89L,N99S)) VHH: EVQLVESGGGVVQPGGSLRLSCAASSRAFIRDVFTGWYRQAPGKQRELVARIYNGGNTNYADSVKGRFTISRDNAKKTVYLQMNSLRPEDTALYYCLFSGTISTGREYRSGDYWGQGTLVTVSS
 |  |  | 100 | 3.7 |  |  | F010302366 (VHH, also called F0103464B09(L11V, T24A, T25S, R39Q, V40A, E44Q, F62S, S68T, M77T, T79Y, R81Q, S82aN, N82bS, K83R, G88A, V89L, N99S)) VHH: EVQLVESGGGVVQPGGSLRLSCAASSRAFIRDVFTGWYRQAPGKQRELVARIYNGGNTNYADSAKGRFTISRDNAKKTVYLQMNSLRPEDTALYYCLFSGTISTGREYRSGDYWGQGTLVTVSS
 |  |  | 100 | 3.1 |  |  | F010302365 (VHH, also called F0103464B09(L11V, T24A, T25S, V40A, E44Q, F62S, S68T, M77T, T79Y, R81Q, S82aN, N82bS, K83R, G88A, V89L, N99S)) VHH: EVQLVESGGGVVQPGGSLRLSCAASSRAFIRDVFTGWYRRAPGKQRELVARIYNGGNTNYADSAKGRFTISRDNAKKTVYLQMNSLRPEDTALYYCLFSGTISTGREYRSGDYWGQGTLVTVSS
 |  |  | 100 | 4.1 |  |  | F010302333 (VHH) VHH: EVQLVESGGGVVQPGGSLRLSCAASSRQFIRDVFTGWYRRAPGKQRELVARIYNEGNTNYADSAKGRFTISRDNAKKTVYLQMNSLRPEDTALYYCLFSGTISTGREYRSGDYWGQGTLVTVSS [F010302333, listing 2 of 2 here]
